Publication PMC3977201

Biological target: APOBEC3G labeled with EGFP (A3G-EGFP), wild type (human), Q9HC16
Test: fluorescence fluctuation spectroscopy
Details: remark: other sources report otherwise

normalized brightness at 1 uM: 10
B1: APOBEC3G labeled with EGFP (A3G-EGFP), wild type, Q9HC16 1-384 (natural protein)
chain: MKPHFRNTVERMYRDTFSYNFYNRPILSRRNTVWLCYEVKTKGPSRPPLDAKIFRGQVYSELKYHPEMRFFHWFSKWRKLHRDQEYEVTWYISWSPCTKCTRDMATFLAEDPKVTLTIFVARLYYFWDPDYQEALRSLCQKRDGPRATMKIMNYDEFQHCWSKFVYSQRELFEPWNNLPKYYILLHIMLGEILRHSMDPPTFTFNFNNEPWVRGRHETYLCYEVERMHNDTWVLLNQRRGFLCNQAPHKHGFLEGRHAELCFLDVIPFWKLDLDQDYRVTCFTSWSPCFSCAQEMAKFISKNKHVSLCIFTARIYDDQGRCQEGLRTLAEAGAKISIMTYSEFKHCWDTFVDHQGCPFQPWDGLDEHSQDLSGRLRAILQNQEN
